According to patent US20140228540A1, “POLYPEPTIDES THAT BIND TISSUE INHIBITOR OF METALLOPROTEINASE TYPE THREE (TIMP-3), COMPOSITIONS AND METHODS” (Amgen Inc., priority 2009, published 2014):

Tests used:
MMP-13 = MMP-13 (Homo sapiens, UniProt P45452); assay: TIMP-3 inhibition of MMP-13 (TIMP-3 alone); format: biochemical; settings: TIMP-3 at 0.25 nM, 1.5 nM MMP-13, absence of any antibody
Text: This Example described MMP-13 Inhibition Assays useful for measuring the effect(s) of TIMP-3 binding proteins (also referred to as test molecules, including LRP-1 peptides and antibodies to TIMP-3) on the ability of TIMP-3 to inhibit MMP-13. First, a titration of TIMP-3 inhibition of MMP-13 is run to empirically determine the IC50 of TIMP-3. […] Briefly, test molecules are titrated in assay buffer and added to black polystyrene 96 or 384 well assay plate (Griener Bio-One, Germany). […] Then recombinant TIMP-3 is diluted in assay buffer (20 mM Tris, 10 mM CaCl2, 10 uM ZnCl2, 0.01% Brij 35 (Calbiochem/EMD, San Diego, Calif.), pH 7.5) to a previously determined concentration (for example, TIMP-3's IC70 with 3 nM being a typical concentration), added to the test molecules and rotated for 10 minutes at room temperature. […]
None of the 22 antibodies evaluated adversely affected the ability of TIMP-3 to inhibit MMP-13, nor did they have an effect upon MMP-13 itself. In the TIMP-3 accumulation assay, the antibodies were evaluated for reproducible, titratable increase in the accumulation of TIMP-3 in supernatant fluid at levels of at least about 1.5 times higher than that observed with a negative control antibody. […]

cartilage-explants = settings: addition of the protein to explants; cited from earlier work
[1] = test system: rat medial meniscal tear model of osteoarthritis; settings: intra-articular injection; cited from earlier work

B1: TIMP-3: tissue inhibitor of metalloproteinase 3, recombinant (protein, UniProt P35625 24-211, looked up)
Metalloproteinase inhibitor 3: CTCSPSHPQDAFCNSDIVIRAKVVGKKLVKEGPFGTLVYTIKQMKMYRGFTKMPHVQYIHTEASESLCGLKLEVNKYQYLLTGRVYDGKMYTGLCNFVERWDQLTLSQRKGLNYRYHLGCNCKIKSCYYLPCFVTSKNECLWTDMLSNFGYPGYQSKHYACIRQKGGYCSWYRGWAPPDKSIINATDP
For B1, the “inhibition of MMP-13 activity” value (MMP-13) is listed as 54%, the “cytokine-induced degradation of cartilage-explants” value (cartilage-explants) is listed as “prevents cytokine-induced degradation” and the cartilage damage [1] is listed as “reduces cartilage damage”.
